Measurements from patent publication US20250243292A1 (published 2025).
Residue numbers refer to the chain shown, from its start.

T1: CD24-GST fusion protein
T1 chain: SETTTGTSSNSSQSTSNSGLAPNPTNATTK

B1: PP6232 (antibody, V domains shown)
VH: EVKFEESGGGLVQPGGSIKLSCAASGVTFSEAWMDWVRQSPEKGLEWVAEIRDKTKNYVTYYAESVKGRFTISRDDSKSRVYLQMNNLRTEDTGIYYCTGAMDYWGQGTSVTVSS
VL: DIVMTQTPLSLSVTIGQPASISCKSSQSLLYSNGKTYLNWLQQRPGQSPKRLIYQVSKLDPGTPDRFSGSGSETDFTLKISRVEAEDLGIYYCMQGTSTPWTFGGGTKLEIKR
B2: PP6234 (antibody, V domains shown)
VH: B1 VH
VL: B1 VL with T97A, T99V
B3: PP6228 (antibody, V domains shown)
VH: B1 VH with T28A, E31G, I95V
VL: B1 VL with T63I, M94L, T99Y
B4: PP6235 (antibody, V domains shown)
VH: B1 VH with T28A, E31G, I95V
VL: B1 VL with T63I, T97A, T99L
B5: PP6226 (antibody, V domains shown)
VH: B1 VH
VL: B1 VL with T63I, M94L, T99Y
B6: PP6233 (antibody, V domains shown)
VH: B1 VH
VL: B1 VL with T63I, T97A, T99L
B7: PP6230 (antibody, V domains shown)
VH: B1 VH with T55S, K56T
VL: B1 VL with T63I, M94L, T99Y
B8: PP6231 (antibody, V domains shown)
VH: B1 VH with K54N, K56T
VL: B1 VL with T63I, M94L, T99Y
B9: PP6372 (antibody, V domains shown)
VH: B1 VH with T55Q, K56N, N57E
VL: B1 VL with T63I, T97S, T99L
B10: PP6388 (antibody, V domains shown)
VH: B1 VH with S40T, K54R, T55E, K56T, N57K
VL: B1 VL with T63I, S98Y, T99L
B11: PP6387 (antibody, V domains shown)
VH: B1 VH with S79G
VL: B1 VL with T63I, T97S, T99L
B12: PP6373 (antibody, V domains shown)
VH: B1 VH with T55P, K56N, N57S
VL: B1 VL with T63I, T97S, T99L
B13: PP6368 (antibody, V domains shown)
VH: B1 VH with T55P, K56N, N57S
VL: B1 VL with T63I, S98Y, T99L
B14: PP6236 (antibody, V domains shown)
VH: B1 VH with K54N, K56T
VL: B1 VL with T63I, T97A, T99L
B15: PP6370 (antibody, V domains shown)
VH: B1 VH with S79G
VL: B1 VL with T63I, S98Y, T99L
B16: PP6369 (antibody, V domains shown)
VH: B1 VH with T28P, E31G
VL: B1 VL with T63I, S98Y, T99L
B17: PP6371 (antibody, V domains shown)
VH: B1 VH with S40T, K54R, T55E, K56T, N57K
VL: B1 VL with T63I, T99L

Molecular target: T1, CD24-GST fusion protein
Test: competitive ELISA

Row | IC50 [µg/mL] | Binder
1 | 0.0713 | B1
2 | 0.0426 | B2
3 | 0.0888 | B3
4 | 0.0411 | B4
5 | 0.0814 | B5
6 | 0.0372 | B6
7 | 0.0589 | B7
8 | 0.0768 | B8

Molecular target: T1, CD24-GST fusion protein
Test: competitive ELISA
Remark: another data set of the same source

Row | IC50 [µg/mL] | Binder
9 | 0.0268 | B9
10 | 0.0249 | B10
11 | 0.0284 | B11
12 | 0.0415 | B4
13 | 0.0207 | B12
14 | 0.0834 | B5

Molecular target: T1, CD24-GST fusion protein
Test: competitive ELISA
Remark: another data set of the same source

Row | IC50 [µg/mL] | Binder
15 | 0.0299 | B13
16 | 0.0269 | B9
17 | 0.0336 | B14
18 | 0.0642 | B15
19 | 0.0611 | B16
20 | 0.0419 | B4
21 | 0.0345 | B17
22 | 0.0856 | B5
